Patent US20240279618A1, “RECEPTOR TYROSINE KINASE AGONIST, COMPOSITION FOR CELL CULTURE MEDIUM, AND […] MAINTENANCE COMPOSITION” (SEKISUI CHEMICAL CO., LTD., priority 2021, published 2024)

T1: FGFR1-Fc (Homo sapiens, UniProt P11362)
T1 construct: each consisting of an extracellular region of FGFR1; purchased R & D Systems 661-FR
T1 sequence (P11362 22-285 isoform P11362-14 limits assumed): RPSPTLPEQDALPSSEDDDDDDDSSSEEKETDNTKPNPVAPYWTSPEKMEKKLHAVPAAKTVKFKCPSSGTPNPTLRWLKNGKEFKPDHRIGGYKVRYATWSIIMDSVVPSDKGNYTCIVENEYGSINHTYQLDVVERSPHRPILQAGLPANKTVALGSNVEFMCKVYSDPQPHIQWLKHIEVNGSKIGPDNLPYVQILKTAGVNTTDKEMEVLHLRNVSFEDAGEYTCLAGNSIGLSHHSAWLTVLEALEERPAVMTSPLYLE


Tests used:
[1] = system: mouse fibroblast cell line NIH/3T3; assay: Solution preservation stability of bFGF and VHH homodimer, read out by fibroblast growth; assay type: cell-based; conditions: 0.5 mg/mL in D-PBS, fibroblast growth on second day
Procedure: bFGF and the VHH homodimer (SEQ ID NO: 23, sequence name: #1-LA-#1, sometimes referred to as a single-domain antibody) was mixed with a D-PBS solution (Fujifilm Wako Pure Chemical Corporation) so that the concentration was 0.5 mg/mL, and incubation was performed at 37° C. for 1 week. Then, the growth promoting abilities for fibroblast growth of four test subjects, which are an incubated VHH homodimer, a pre-incubated bFGF, a VHH homodimer after thawing from freeze-preservation, and bFGF immediately after solutionizing with D-PBS from a freeze-dried product, were evaluated. As a negative control, culture without any of the bFGF and the VHH homodimer was also performed at the same time. The culture conditions were the same as those in Item 1 and Item 2 of the present Example, and the cell growth was evaluated by the number of cells on the second day after the start of culture.

iPS cells (253G1 cells) = assay: iPS cell culture: evaluation of undifferentiated state (immunostaining); assay type: cell-based, human; conditions: second passage, Day 6 (Culture day 20)
Procedure: The cells were cultured in the medium of each group for 3 to 5 weeks, and the following operations were performed on Days 4 to 7 of the passage. After washing the cells with D-PBS, 1 mL/well of 4% formaldehyde was added. After being left to stand for 30 minutes or longer, the solution was removed and washing was performed with D-PBS. 0.1% Triton X-100/D-PBS was added thereto and the mixture was left to stand at room temperature for 3 to 5 minutes. After washing with D-PBS, 1% of BSA/D-PBS was added thereto and the mixture was left to stand for 30 minutes.
An antibody for undifferentiation marker staining, such as OCT4 (Abcam, ab19857) or SSEA4 (Abcam, ab16287), was diluted in 1% BSA/D-PBS at an appropriate ratio, added to a well, which was left to stand for 30 to 60 minutes. After washing with D-PBS, secondary antibodies (a Goat anti-Rabbit IgG antibody (Abcam, ab 150115) and a Goat anti-Mouse IgG antibody (Abcam, ab150077)) were diluted in 1% BSA/D-PBS at an appropriate ratio and added to the wells, which were left to stand with light shielded with an aluminum foil for 30 to 60 minutes. DAPI (DOJINDO LABORATORIES, 340-07971) was diluted with 1% BSA/D-PBS to a concentration of 1 to 10 μg/mL, and added to each well, which was left to stand for 5 minutes. […] The image was acquired by observing the sample under a fluorescence microscope.

[2] = system: human bone marrow-derived MSC; assay: MSC culture: evaluation of MSC markers by flow cytometry; assay type: cell-based; conditions: MSC fourth passage, 10% or 20% FBS; for CD90-expressing (positive) cells: over the concentrations tested
Procedure: On Day 5 after the initial seeding, D-PBS was added to the cells and removed by suction. 500 μL of TrypLE Express was added to each well and the mixture was left to stand in a CO2 incubator for 5 to 10 minutes. The cells were observed under a microscope, and in a case where it was possible to confirm that the cells had changed in morphology, a medium was added thereto, and the cells were recovered in a PP tube by pipetting, and centrifuged (300× g, 5 minutes). After the centrifugation, the supernatant was removed by suction, an appropriate amount of 1% BSA/PBS was added to the pellet, and the mixture was pipetted to form a suspension.
A part of the suspension was collected and the number of cells was evaluated with a cell counter. Dilution was performed with 1% of BSA/PBS, so that the concentration was 0.6 to 1.0× 10^6 cells/mL. 50 μL of the mixture was dispensed into a 2 mL tube, so that the concentration was 3 to 5×10^4 cells/tube.
Equal amounts of the suspension subjected to the cell counter and the antibody solution adjusted above were mixed, and the mixture was left to stand on ice for 30 minutes or longer with light shielded. 1% of BSA/PBS was added thereto, the mixture was centrifuged (400 to 600×g, 5 minutes), and then the supernatant was removed by suction. Then, 300 to 500 μL of 1% BSA/PBS was added thereto, and the pipetted sample was subjected to flow cytometric analysis using an Attune NxT Flow Cytometer (Thermo Fisher Scientific, Inc.).

FGFR1-Fc = biological target: T1, FGFR1-Fc; assay: Affinity measurement of VHH (monomer) by surface plasmon resonance (SPR); conditions: 1:1 binding model; for ka: 25° C.; for Kd: Biacore T200, 25° C., read-out: equilibrium dissociation constant (KD)
Procedure: Affinity measurement of VHH (monomer) was performed by a surface plasmon resonance (SPR) method.
The binding activity of VHH Clone #1 or VHH Clone #2 immobilized on Series S Sensor Chip CAP (manufactured by Cytiva) with respect to FGFR1-Fc was measured using Biacore (registered trademark) T200 (manufactured by Cytiva). Measurement was performed by CAP Single-cycle Kinetics. The temperature was set to 25° C. As a running buffer, 10 mM HEPES (pH 7.4) (Cytiva) including HBS-EP+(150 mM NaCl, 0.5 mM EDTA, and 0.05% surfactant P20) was used. The measurement order for each run is as follows.
1) Immobilization of biotinylated FGFR1-Fc: The flow rate was set to […], Biotin CAPture Reagent (Cytiva) was added thereto for 300 seconds, then the flow rate was set to […], and an FGFR1-Fc solution diluted with a running buffer was added thereto for 120 seconds to immobilize 140 RU. Here, the “resonance unit (RU)” is a unit used in the above-described Biacore, and a change of an SPR angle of 0.1° is defined as 1,000 RU.
2) Measurement of binding activity: The flow rate was set to 30 μL/mL, and VHH Clone #1 or VHH Clone #2 each diluted to 1.85 nM, 5.56 nM, 16.67 nM, or 50 nM, using a running buffer, was allowed to have an association time set to 120 seconds for binding and a dissociation time set to 600 seconds for interaction.
3) Regeneration of sensor chip surface: The flow rate was set to 10 μL/mL, a solution in which Reaneration stock 1 and Regeneration stock 2 (manufactured by Cytiva) were mixed at the ratio of 3:1 was added thereto for 120 seconds to extract the immobilized VHH. Next, analysis was performed with a 1:1 binding model using Biacore T200 Evaluation (software version 2.0, manufactured by Cytiva), and the binding activity was calculated.

Molecule | ka (FGFR1-Fc) [M⁻¹ s⁻¹] | Kd (FGFR1-Fc) [nM] | cell growth activity after incubation at 37° C. for 1 week [1] | undifferentiation markers OCT4 and SSEA4 (iPS cells (253G1 cells)) | CD90-expressing cells ([2]; "at ng/mL" (figure not given)) | CD90-expressing (positive) cells [2]
FGF2: fibroblast growth factor (basic), human, recombinant (154aa), positive control; SEQ ID NO: 58 [reference compound] | – | – | the same as that in the case of no addition | positive | less than 95% | decreased in inverse proportion to the concentration
#1-L4-#1: dimer of VHH #1 with linker L4 (GSEGKSSGSGSESKST), SEQ ID NO: 23 (protein, #1-L4-#1) VHH: QLQLVESGGGSVQAGGSLRLSCAASRSLSRFNVWTWYRQAPVKQRELVASITKSGDTNYAESVKGRFIISRDDDKNTVYLQMNNLKSEDTGIYYCAGSYYSGSYLYPSPGGFSVWGQGTQVTVSSGSEGKSSGSGSESKSTQLQLVESGGGSVQAGGSLRLSCAASRSLSRFNVWTWYRQAPVKQRELVASITKSGDTNYAESVKGRFIISRDDDKNTVYLQMNNLKSEDTGIYYCAGSYYSGSYLYPSPGGFSVWGQGTQVTVSS | – | – | exhibited the same cell growth activity as that of bFGF | positive | – | ≥ 97%

Further lines, with some results ahead:

ka (FGFR1-Fc) [M⁻¹ s⁻¹] | Kd (FGFR1-Fc) [nM] | Molecule | cell growth activity after incubation at 37° C. for 1 week [1] | undifferentiation markers OCT4 and SSEA4 (iPS cells (253G1 cells)) | CD90-expressing cells ([2]; "at ng/mL" (figure not given)) | CD90-expressing (positive) cells [2]
1.11e+06 | 1.02 | VHH Clone #2: alpaca-derived VHH single-domain antibody (monomer) binding FGFR1, amino acid sequence SEQ ID NO: 18 (protein, VHH_Clone_#2) VHH: QVQLVESGGGLVQAGGSLRLSCAVPGSIFRFNTMGWYRQPPGKQRELVAQMSRGGITKYGDSVKGRFTITRDNAKNTVHLQMNSLKPEDTAVYYCAGSYYSGSYYYPSPQGFSVWGQGTQVTVSP | – | – | – | –
8.19e+06 | 1.74 | VHH Clone #1: alpaca-derived VHH single-domain antibody (monomer) binding FGFR1, amino acid sequence SEQ ID NO: 17 (protein, VHH_Clone_#1) VHH: QLQLVESGGGSVQAGGSLRLSCAASRSLSRFNVWTWYRQAPVKQRELVASITKSGDTNYAESVKGRFIISRDDDKNTVYLQMNNLKSEDTGIYYCAGSYYSGSYLYPSPGGFSVWGQGTQVTVSS | – | – | – | –
